Experimental data from patent publication US20250216381A1 (published 2025).

T1: ARHGEF16 R150W peptide on HLA-DRA*01:01 / HLA-DRB1*11:01 (human)
T1 peptide: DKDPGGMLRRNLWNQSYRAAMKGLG

T2: HELZ2 P775A peptide on HLA-DPA1*01:03 / HLA-DPB1*104:01 (human)
T2 peptide: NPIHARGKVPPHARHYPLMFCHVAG

T3: HELZ2 P775A peptide on HLA-DPA1*03:01 / HLA-DPB1*104:01 (human)
T3 peptide: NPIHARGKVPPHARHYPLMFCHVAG

T4: ERGIC2 L176P peptide on HLA-A*03:01 (human)
T4 peptide: RIHGHPYVNK


Assays:
Assay in all cases: activation reporter or marker
[1] = target: T1, ARHGEF16 R150W peptide on HLA-DRA*01:01 …
[2] = target: T2, HELZ2 P775A peptide on HLA-DPA1*01:03 / …
[3] = target: T3, HELZ2 P775A peptide on HLA-DPA1*03:01 / …
[4] = target: T4, ERGIC2 L176P peptide on HLA-A*03:01

binding result [1] | Binder | also measured
recognises | 8434-TCR21 (TCR, V domains shown) Valpha: KQEVTQIPAALSVPEGENLVLNCSFTDSAIYNLQWFRQDPGKGLTSLLLIQSSQREQTSGRLNASLDKSSGRSTLYIAASQPGDSATYLCAVRRDGTASKLTFGTGTRLQVTL Vbeta: AVVSQHPSWVICKSGTSVKIECRSLDFQATTMFWYRQFPKQSLMLMATSNEGSKATYEQGVEKDKFLINHASLTLSTLTVTSAHPEDSSFYICSASFPGRGNEQFFGPGTRLTVL | 
recognises | 8434-TCR23 (TCR, V domains shown) Valpha: QQQVKQSPQSLIVQKGGISIINCAYENTAFDYFPWYQQFPGKGPALLIAIRPDVSEKKEGRFTISFNKSAKQFSLHIMDSQPGDSATYFCAASRASGGSYIPTFGRGTSLIVHP Vbeta: GITQSPKYLFRKEGQNVTLSCEQNLNHDAMYWYRQDPGQGLRLIYYSQIVNDFQKGDIAEGYSVSREKKESFPLTVTSAQKNPTAFYLCATKILAGANTGELFFGEGSRLTVL | 
recognises | 8434-TCR20 (TCR, V domains shown) Valpha: KQEVTQIPAALSVPEGENLVLNCSFTDSAIYNLQWFRQDPGKGLTSLLLIQSSQREQTSGRLNASLDKSSGRSTLYIAASQPGDSATYLCAVRHSGNTPLVFGKGTRLSVIA Vbeta: AVVSQHPSRVICKSGTSVKIECRSLDFQATTMFWYRQFPKQSLMLMATSNEGSKATYEQGVEKDKFLINHASLTLSTLTVTSAHPEDSSFYICSASGGGRTEAFFGQGTRLTVV | 
 | 6932-TCR5 (TCR, V domains shown) Valpha: RKEVEQDPGPFNVPEGATVAFNCTYSNSASQSFFWYRQDCRKEPKLLMSVYSSGNEDGRFTAQLNRASQYISLLIRDSKLSDSATYLCVVKNQGGKLIFGQGTELSVKP Vbeta: GVTQTPRYLIKTRGQQVTLSCSPISGHRSVSWYQQTPGQGLQFLFEYFSETQRNKGNFPGRFSGRQFSNSRSEMNVSTLELGDSALYLCASILGGGRGDTQYFGPGTRLTVL | binding result [2]: recognises; binding result [3]: recognises
 | 2599-TCR12 (TCR, V domains shown) Valpha: EDKVVQSPLSLVVHEGDTVTLNCSYEVTNFRSLLWYKQEKKAPTFLFMLTSSGIEKKSGRLSSILDKKELFSILNITATQTGDSAIYLCGGLNAGGTSYGKLTFGQGTILTVHP Vbeta: EPEVTQTPSHQVTQMGQEVILRCVPISNHLYFYWYRQILGQKVEFLVSFYNNEISEKSEIFDDQFSVERPDGSNFTLKIRSTKLEDSAMYFCASLGASTYEQYFGPGTRLTVT | binding result [4]: recognises
